The text below walks through data of a protein production outcome set (Wang et al. 2014).

The data set is described as follows: label from the status in PepcDB records.
In the case of “MNNTPKLKLGIVAVSRDCFPMELSENRRKAVVDAYNGEIFECLTTVENEKDMRKALKEVKSAGVNALVVYLGNFGPETPETLIAKEFDGPVMFAAAAEERGDNLVNGRGDAYCGMLNASYNLALRNINAYIPEYPVGTASDVANMINEFVPVATALIGLKNLKIISFGPRPQDFLACNAPIKQLYNLGVEIEENSELDLFASFNEHENDSRIPDVVKDMEEELGEGNKMPGILPKLAQYELTLLDWAEEHKGSREYVVFANKCWPAFQTQFGCVPCYVNSRLTARGIPVSCEVDIYGALSEYIGTCVSQDVVTLLDINNTVPKDMYESEIKSKFNYTLKDTFMGFHCGNTAACKLTSGTMKNQMIMARALEPNQEPNITRGTLEGDIVPGEITFFRLQSNADSELTAYVAEGEVLPVKTRSFGSIGVFAIPQMGRFYRHVLIENRFPHHGAVAFGHFGKAIYNLFRYLGVKEVGFNRPKEMLYKTENPFELEHHHHHH”, the protein production entry is on record as “not failed”.
For “MDDLIRLLEEMGIPFAYDHFAEGESPDPPFICYLLPQSDNFSADGKVYLKVSSVNIELYTDCKDLSVEQKLEAVLDTHGIFYDKTKVWIESEKLYEVLYSFEMEVLEHHHHHH” the value was “failed”; for “MAANGVRRALQASSSSGKILFGRSSAATSASKIGKSAGIAFGNGSSSSTRPSLRRLTFSRVPVELSAGISLIPLHSVTASALLTSLLSLSNQNWSCLSEGKFFTCVHDLCLELKLILNFCFQTRSKCSLNW”, “failed”; for “MSTCTLRFKNDWLKIFTCPVPSSDFLSFVGVATIDAPQHAVLSLLYDIESATEWVWKTREMRVLQELADDNEGRVVYQVVSAPWPVSDREIISRSTAYKDPETGEVFIKIESLPDFIPETSNCVRVRKLEGAWNILPLSENSCRVVFRLHIEPAGEIPSWLANIAVIDTPYHTLNNMRDMVKREKYKNPLEHHHHHH”, “failed”.
As to “MIPPLQLSPLALVALLSLAAWAVVLLTRRRFWRCDQRLGQNTMAPGAAPAVVAVIPARDEAHTIGQTVRSLLNQSYPGRLVVVVVDDSSSDGTADAARAGAASVYDGPSRLIVVPGKPLEAGWSGKLWAVHQGLEVAAQAVPEARYVLLTDADIEHIPGNIARLVGKCERDGLVMASLMVKLRCESAWEHLLIPAFIFFFQKLYPFPLVNDPDRRVAGAAGGCILARRETLDAIGGVAAVRGALIDDCALAALLKEKGPIWLGLAGRTRSLRPNDELGDVWRMVARTAYVQLHHSPLRLIGAVIGMTLLYLVPPVSLIVGILSADFPAAVAGLVGWIGLAIIYRPTLHLYRRPPMAGLALPLAALLYTLMTIDSARRHYVGRGGEWKGRTYSGDASAGADPGPRSPAELAAHVEAITKASGTSFYGAMRILPRERRLAMYAIYAFCRVVDDIADGTAPEAEKRAELARWRDEIEALYARGGKGPEHPVARALDGPIRRFALPREDFLAVIEGMELDAGPRVRIRDITELEQYCDWVACAVGRLSNRIFGADPALSDDVARHTGLALQLTNILRDVVEDAERDRLYLPLSRLRAHGLKTTKDIDAVLVHPATAKVCAELASKAAAEFAEADRAQAACDRKTMRPAIIMKEVYRRIHAALMVRGWARLGEPVKVSRLTKLGIALRHGWL”, the protein production entry is reported as “failed”.
“MSCYNKALLIGNKVVVILVFLLCLVHSSESLRPLFACDPANGLTRTLRFCRANVPIHVRVQDLLGRLTLQEKIRNLVNNAAAVPRLGIGGYEWWSEALHGISDVGPGAKFGGAFPGATSFPQVITTAASFNQSLWEEIGRVVSDEARAMYNGGVAGLTYWSPNVNILRDPRWGRGQETPGEDPIVAAKYAASYVRGLQGTAAGNRLKVAACCKHYTAYDLDNWNGVDRFHFNAKVTQQDLEDTYNVPFKSCVYEGKVASVMCSYNQVNGKPTCADENLLKNTIRGQWRLNGYIVSDCDSVDVFFNQQHYTSTPEEAAARSIKAGLDLDCGPFLAIFTEGAVKKGLLTENDINLALANTLTVQMRLGMFDGNLGPYANLGPRDVCTPAHKHLALEAAHQGIVLLKNSARSLPLSPRRHRTVAVIGPNSDVTETMIGNYAGKACAYTSPLQGISRYARTLHQAGCAGVACKGNQGFGAAEAAAREADATVLVMGLDQSIEAETRDRTGLLLPGYQQDLVTRVAQASRGPVILVLMSGGPIDVTFAKNDPRVAAIIWAGYPGQAGGAAIANIIFGAANPGGKLPMTWYPQDYVAKVPMTVMAMRASGNYPGRTYRFYKGPVVFPFGFGLSYTTFTHSLAKSPLAQLSVSLSNLNSANTILNSSSHSIKVSHTNCNSFPKMPLHVEVSNTGEFDGTHTVFVFAEPPINGIKGLGVNKQLIAFEKVHVMAGAKQTVQVDVDACKHLGVVDEYGKRRIPMGEHKLHIGDLKHTILVQPQL”: the protein production entry is listed as “failed”.
As to “MKDSQEVTHFSAARSSKWTQHDTYWLLSLFGTAVGAGILFLPINIGLGGFWPLVLMAVLAFPMTYLSHRGLARFVLSSRRPNADFTDVVEEHFGQNAGRLISLLYFLSIFPILLIYGVGLTNTVDSFLVNQADMVSPPRALLSGALVFGLIAIMLSGEKIMLRAFAIMVYPLAAILALLSLYLIPYWSMPSFDFPQTSDFLHTVWLAVPVVVFSFSHAAAISSFANIQRRHYGEQADQKSEQILRHTSVVLILFVLLFVFSCVLALSPQALQEAKAQNISVLTYLANVTDNPFIATLGPLVAFIAITSSFLGHFLGARESLSGLLTKNLGVSLRLAERLTIGFLFVTIWIAAILNPSILGMMEALSGPVIAMILFIMPMIAVFKVPALREHQKRFSTFFVLLVGLLAVSALLYSLLR”, the protein production result is listed as “failed”.
For “MELSQRQERIIEIVKTKGPITGEQIADKLNLTRATLRPDLAILTMSGFLEARPRVGYYYSGKSKGKFFNEKLRQFEVKDYMSQPVVLRENTTVYDAICTIFLEDVSTLFIINEDNDFVGVCSRKDLLRASMIGADIHTVPISVNMTRMPNVTYLEESELVIYAADRMIEKEIDSIPIVRKKDNQKYEVIGRISKTTIAKLLVALYKE”, the protein production result is listed as “not failed”.
Regarding “MTHTITIVGLGNYGIDELPLGIYRFLEKESKVYARTLNHPVINTLKKEIEFESFDSIYEAHDRFEDVYEAIVTSLIELAQSEDIVYAVPGHPRVAETTTVKLLEYSHFNKDISVKVLGGKSFIDDIFEAVDVDPNDGFTLLDGTSLKESALNVRTNTVITQVYSVMIAADLKLTLMERYPDDFNVKIITGSHSDGAHVIECPLYEIDRYDDYFNNLTSLFIPKINEDTLLYQDFDYAVQTIDLLVDNEKGCPWDKVQTHDSLKRYLLEETFELFEAIDNEDDWHMIEELGDILLQVLLHSSIGKKEGYIDIKEIIESLNTKMIHRHPHIFGNAHVTSQEDLKDIWSRAKEKEGKVPRVKFEKVFADHFLKLYDKTKNRQFDEDDLKQFLQQGEKNS”, the protein production entry was “failed”.
For “TISQRPYRDRVIHLLALKAYKKPELLARLQKDGVNQKDKNSLGAILQQVANLNSKDLSYTLKDYVFKELQRDWPGYSEIDRRSLESVLSRKLN” the value was “not failed”.
To “IVPDAQDLGKSYGIRPSFIIAQAALDSDFGEKILANKYHNLFGLLAEPGTPSITLNDSSTGKKQEKQFTHYKSWKYSMYDYLAHIKSGATGKKDSYTIMVSVKNPKTLVQKLQDSGFDNDKKYAKKMTEIIDLYDLTRYDK” belongs “failed”.
As for “MDPVLLLSALLLLAFGLIGVGTAEPGLLQDHLLRVGAALLALVLGHLLPPRLLLRYALHALVGVLLLLVLVLLVGDGPGGVRRWFYLGPVALQPSELAKLALILYLSSFVGRRGEDYPILGPVLAVGSLVGLVLVEPDFATAAFLAGLAVLLFVLAGIPWPRLLGMGLAVALVVLPFSGLYLAQFRYVSERFANFVDYLQGESEPGGGAYQVVQAKKALLLGGPFGQGPGATLPHLPEAHNDMVFASVVFATGWLGGAVVFLLYTLILLRSLAVGLALKGGERLLALGLGLYLALQAALNIGVTLGVLPVTGVPLPLVSYGGSSLLVSGFAVGLLSRLAREAAERPRRKGVAR”, the protein production result is reported as “failed”.
For “MAKKENQQPDNHVGEVVSRSEQFIEKNMTKIGLVILGVFIIVAGIFAYKRFVSEPKAREAAAKVYLAEDKFIQELDSAALNGNGANEMGLLTVIKKYSGSDASNLAKAYAGICYYNLGEYQKAIDHLKGFSSKENMVAPSITRLIGDCYVQLKKYEEAVGYFEKAAAAASNDAITPGCLIKAGRVYEELKQYDKALAAYKQVKEKYYTSMEANTVEADIIRVKTKGAK” the value was “failed”.
To “MPRKKKTVEDPALTRALKVMEAGALPDADLAAEFATLAESYGKLLRKFNKTLVISDAYEAQHQAMAKKLEEATWKYRQLKDVALPICMYCKKIRSDDDYWQRLETFFCNHADIMFSHGICPDCIKTAYEKMGMNRRAMPLPDAAVTGQPAASPERQPVEDDALREMRALVRRSAFDGSPVAPEVEQFVEKYGKLLRRFSKIVSISDSYQSQLRELNARLELMARTDLLTGLANHWEMVMRLAAEQSRSERNGKVFSIVLADIDHFKKVNDTHGHQAGDRVIRGIADTLRTNIRREDICSRWGGEEFLIILPEADLPRAGAVAAKLLAKVRNTVVPWDGRDIRVTVSIGYGTSEPGMSVDELIRRVDDALYSAKAAGRDRFAAAGSRADV” belongs “failed”; to “MKPLSARQQQVLQATVHHYVDTMEPVGSRTLVQRFGIPASSATVRSAMGALEKRGLLTQPHTSAGRIPSALGYRCYVDDLLPEPGVAVQHLERELTGLSLRWAALDDLLQQLARRLTDFTGLMSLITRPQQPRAQLEAIRLVQSGDRLLVMLVEDSGRASHLNLRLPPGASDELTAIERWTDQQLEDGSINWRSLPPQLQRSGDVLRSALDHPSMSPETPLVVHGLSRLVAEPEFHSTAELRPLLELIDDQPCAVVSATDQPGVWIGEEHPQKALQACSVVQAPYRCGQEGVGQVALVGPMRMAYATAHAAVQRVARHLDLLLN”, “failed”.
As for “MGHHHHHHSHMIEHDPVKPRQLPKTIGCSKNFPGKTALATREQVQWWLLQLAQELEERLTKDRNDNDRVATQLVVSIRVQGDKRLSSLRRCCALTRYDAHKMSHDAFTVIKNCNTSGIQTEWSPPLTMLFLCATKFSASAP”, the protein production entry is “not failed”.
To “LPSFRHKVFALVLVGVFVGLGAYLVYMSKAYSYLSDDPRVCINCHVMGPYYATWQHSSHAMRATCNDCHVPHNSIFSKYYFKASDGLRHSYVFTMRNEPQRMQAISASQAVIYDNCVRCHAQLNQEFVRTGMLTRADIRTAEEKACWDCHRDVPHGGKNS” belongs “failed”; to “MEIGIIGTGNIGGTLARKLIAAGHQVRVANSKGIHGVQSFADEIGATAVDVYGAVKGADAIILSIPLPALASLPNGFFDDLPETVPLIDTSNYYPGLRDPLIPEIDDGMTESVWVSQQLSHPVIKAFNNILAWSLAELGTPKGSASRLAIAVAGDNATLKQIVMNLVDDTGFDAIDAGSLEESWRQQPSTPAYCCDYDAETMKKGLTAAVRGEAASKRDRLPELFGKLGANPTHEDIVAMNRSLNPLEHHHHHH”, “not failed”.
